Assay results from the supplement of paper PMC9732359.
± gives the uncertainty stated by the source.

Assay: protein stability index of a GFP-peptide fusion (yeast GPS) (PSI 1-4); higher = more stable; sorted into four equal gates, so the index is relative within each strain
How it was run: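 Each library plasmid carries Cherry plus GFP with a tiled 17-residue yeast protein peptide fused downstream, and the pooled library was carried in yeast. Mid-log cultures in leucine-free medium were sorted into four equal gates by GFP/Cherry ratio. Reads from Illumina sequencing of PCR-amplified plasmids from each gate were assigned to strains by barcodes. Per peptide, the protein stability index was computed as the summed products of gate read frequency and gate number.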

Row | Sequence | protein stability index (doa10∆) | protein stability index (pdr5∆) | protein stability index (san1∆) | protein stability index (ubr1∆)
1 | CWLSSVDVNTQKSFEQL [RPN11] | 2.69 ± 0.095 | 1.28 ± 0.19 | 1.4 ± 0.29 | 1.35 ± 0.065
2 | VLKTLIEKFEQVPDSLD [RPN6] | 3.16 ± 0.093 | 3.21 ± 0.081 | 3.37 ± 0.06 | 3.21 ± 0.086
3 | SESQLNSTLKKVESQET [YCS4] | 2.62 ± 0.18 | 3.4 ± 0.22 | 3.31 ± 0.1 | 3.04 ± 0.29
4 | SAGFETDLRLSTNGLGM [SNU114] | 3.43 ± 0.1 | 3.46 ± 0.12 | 2.98 ± 0.22 | 3.13 ± 0.22
5 | GDTVRILDTSQSESRQK [SNU114] | 2.81 ± 0.051 | 2.96 ± 0.054 | 2.77 ± 0.05 | 2.9 ± 0.04
6 | QHPFPLAHSQHRCAIRS [SSN2] | 1.76 ± 0.05 | 1.42 ± 0.042 | 1.51 ± 0.091 | 1.27 ± 0.034
7 | GNRNSSSVFLPSRKDCM [BRR2] | 3.18 ± 0.086 | 3.16 ± 0.071 | 3.2 ± 0.057 | 3.22 ± 0.074
8 | ENSTSNSKPEKSSDSND [YLR335W/NUP2] | 3.24 ± 0.14 | 3.32 ± 0.16 | 3.31 ± 0.071 | 3.4 ± 0.085
9 | LVRYGLAEKVEKASRQQ [RPS24A] | – | 3.33 ± 0.11 | 3.38 ± 0.098 | 3.19 ± 0.19
10 | ELDAQTLPGDDELDQEI [RPT5] | 3.32 ± 0.097 | 3.26 ± 0.12 | 3.44 ± 0.083 | 3.59 ± 0.094
11 | NKKSEENEMIKPMNKGQ [SWP82] | 3.09 ± 0.18 | 3.41 ± 0.095 | 3.39 ± 0.067 | 3.39 ± 0.26
12 | RPFEGLFVISTEISPMA [RRP45] | 2.67 ± 0.048 | 2.87 ± 0.049 | 3.04 ± 0.061 | 2.86 ± 0.037
13 | KPGSTVMLLGTPDANLI [UBP6] | – | 3.58 ± 0.24 | – | 3.38 ± 0.12
14 | NNNHKDKKLLRRLLNLY [SWI1] | 2.88 ± 0.054 | 2.93 ± 0.054 | 2.92 ± 0.058 | 3.03 ± 0.054
15 | GAVGLKDLTLCRYSCLA [YCS4] | 2.4 ± 0.095 | 2.42 ± 0.1 | 1.94 ± 0.12 | 2.13 ± 0.085
16 | ELHKKLVEAAKLLKIPK [YDL116W/NUP84] | 2.57 ± 0.13 | 2.24 ± 0.15 | 2.33 ± 0.22 | 2.49 ± 0.1
17 | SQVFGVARIYASFNDTF [RPS14A] | 2.05 ± 0.062 | 1.81 ± 0.045 | 2.11 ± 0.073 | 2.38 ± 0.056
18 | SLTAEAMTAAEHGLHAP [CYT1] | 2.82 ± 0.091 | 3.25 ± 0.073 | 2.94 ± 0.057 | 3.1 ± 0.045
19 | QTKEIKTERVEDQKVVD [RPL6B] | 3.55 ± 0.088 | 3.33 ± 0.11 | 3.48 ± 0.068 | 3.53 ± 0.076
20 | VWGSETVASSKVGYTLP [RPL4A] | 3.03 ± 0.059 | 3.15 ± 0.049 | 3.14 ± 0.034 | 3.156 ± 0.031
21 | FTNLGIIVQYLTKFRQK [RGR1] | 2.46 ± 0.053 | 2.64 ± 0.087 | 2.35 ± 0.066 | 2.28 ± 0.07
22 | LNLFSNVLKAPFIKSES [SIR4] | 1.67 ± 0.061 | 1.75 ± 0.087 | 1.26 ± 0.13 | 1.79 ± 0.056
23 | LTEQIRELREVIELPLK [RPT4] | 2.69 ± 0.14 | 3.73 ± 0.27 | 3.12 ± 0.17 | 3.06 ± 0.087
24 | FIFQIIEITNSNDLCSQ [SRB8] | 1.39 ± 0.059 | 1.62 ± 0.049 | 1.71 ± 0.1 | 1.21 ± 0.075
25 | VVEPEHMADAKIMPKDI [SIR4] | 3.28 ± 0.1 | 3.35 ± 0.071 | 3.33 ± 0.085 | 3.12 ± 0.081
26 | VSSKPSKPESSVLQLIV [MED1] | 2.73 ± 0.13 | 3.28 ± 0.11 | 2.94 ± 0.073 | 3.27 ± 0.098
27 | LFQELSKVVDDMPSLRL [GRR1] | 3.2 ± 0.18 | 1.61 ± 0.11 | 2.22 ± 0.12 | 2.31 ± 0.085
28 | KIDIIELQKSLSLEEVE [FAS1] | 2.92 ± 0.14 | 2.62 ± 0.15 | 2.52 ± 0.077 | 2.79 ± 0.088

Row | Sequence | protein stability index (doa10∆) | protein stability index (pdr5∆) | protein stability index (san1∆) | protein stability index (ubr1∆)
29 | RERQVNEKLADLGLEKE [RPC53] | 3.2 ± 0.14 | 3.4 ± 0.16 | 3.06 ± 0.18 | 3.2 ± 0.24
30 | HHDGKLWNLNAYRTDVI [PRP8] | 2.94 ± 0.082 | 3.28 ± 0.092 | 3.04 ± 0.074 | 3.07 ± 0.071
31 | VGLRSNTHAVLVALKRN [PRE5] | 1.2 ± 0.037 | 1.45 ± 0.039 | 1.15 ± 0.093 | 1.21 ± 0.033
32 | ETDDNIETVMTQEQFVK [SRB4] | – | 3.23 ± 0.17 | 2.6 ± 0.2 | –
33 | IAAKTHILRISFLDRKR [SIN4] | 2.53 ± 0.1 | 2.65 ± 0.09 | 1.84 ± 0.073 | 2.42 ± 0.049
34 | VLPAATKKKSKFMTNST [ARP9] | 2.74 ± 0.055 | 2.78 ± 0.046 | 2.71 ± 0.047 | 2.96 ± 0.039
35 | QREFKEIMEERNVEQKL [NNF1] | – | – | 2.79 ± 0.24 | –
36 | TVSILQESSSLRLLEVT [POP8] | 2.2 ± 0.055 | 2.38 ± 0.048 | 2.4 ± 0.083 | 2.33 ± 0.033
37 | LRQQYEIELKKLPKVYK [SWI1] | 2.04 ± 0.067 | 1.75 ± 0.066 | 2.22 ± 0.12 | 2.75 ± 0.073
38 | EKNEKEREIKRRKFDPS [UBP6] | 3.3 ± 0.05 | 3.25 ± 0.051 | 3.09 ± 0.044 | 3.25 ± 0.057
39 | GSRKVAGILRGYDIFLN [SMX2] | 2.5 ± 0.11 | 1.67 ± 0.08 | 1.83 ± 0.15 | 1.98 ± 0.099
40 | IKLSLKDKTKNISAEII [SMC4] | 2.84 ± 0.082 | 3.09 ± 0.08 | 3.04 ± 0.066 | 3.11 ± 0.082
41 | NENEDEDEGTLNVAEII [ARP9] | 3.37 ± 0.13 | 2.91 ± 0.14 | 3.34 ± 0.072 | 2.13 ± 0.12
42 | KPGSKPEKTSTELVDGR [SIR3] | 3.16 ± 0.13 | 2.86 ± 0.16 | 3.26 ± 0.089 | 3.27 ± 0.14
43 | DPWNKLKHTDYWYEQDS [RPB3] | – | – | – | 2.99 ± 0.12
44 | AVDNCAICRNHIMEPCI [HRT1] | 2.12 ± 0.071 | 2.79 ± 0.09 | 2.02 ± 0.086 | 2.2 ± 0.07
45 | SAPKISSEIDRENVKSK [SIR4] | – | – | – | 3.35 ± 0.15
46 | NVRSSVLQKVIEWAEHH [SKP1] | 2.4 ± 0.096 | 2.91 ± 0.11 | 2.4 ± 0.085 | 2.03 ± 0.099
47 | AVNWQDKQGWTPLFHAL [NAS6] | 2.07 ± 0.16 | 2.1 ± 0.18 | 2.4 ± 0.092 | –
48 | TDENTPSADGADKKDDS [ITC1] | 3.04 ± 0.11 | 3.11 ± 0.062 | 3.36 ± 0.064 | 2.98 ± 0.061
49 | SVILSVISMFVLPIFTT [YML031W/NDC1] | 1.29 ± 0.045 | 1.5 ± 0.059 | 1.3 ± 0.092 | 1.93 ± 0.043
50 | SNIQRNVLFLRLFNNVK [SRP72] | 2.24 ± 0.059 | 2.23 ± 0.054 | 1.49 ± 0.076 | 1.83 ± 0.05
51 | KSAVSHAPAYHRSKKDQ [IRR1] | 3.13 ± 0.16 | 2.79 ± 0.11 | – | 3.1 ± 0.069
52 | MNNETSGKETASAPLCS [DLS1] | 3.01 ± 0.067 | 3.21 ± 0.06 | 3.18 ± 0.055 | 3.12 ± 0.063
53 | YKVMHQIRACKDLKHII [PRP8] | 2.27 ± 0.041 | 2.41 ± 0.046 | 2.21 ± 0.052 | 2.19 ± 0.05
54 | EGIEIYDRKKLPRKEVD [RPC11] | 3.14 ± 0.14 | 2.98 ± 0.097 | 1.91 ± 0.14 | 3.3 ± 0.17
55 | ESVELPLTHPELYEEMG [RPT2] | 2.63 ± 0.077 | 2.94 ± 0.074 | 2.78 ± 0.07 | 2.74 ± 0.037
